{"source": "the supplement of paper PMC10126150", "test_system": "ATP", "assay": "switch fluorescence ratio, 500 uM ATP over buffer (Cy3 cluster intensity, sum of 5 cycles each) (fold (ratio)); higher = stronger signal-on switching upon ATP binding; sequences stand for … in TCGTCGGCAGCGTCAGATGTGTATAAGAGACAGTTTTTTTTTTTTTTTTTTTTTTTTT…TC", "conditions": "aptamer strand: ATP DNA aptamer (quencher-CACCTGGGGGAGTATTGCGGAGGAAGG + anchor), 100 nM annealed; ATP concentration: 500 uM", "how_it_was_run": "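Cy3-labelled switching-strand clusters on a modified Illumina MiSeq flow-cell were annealed to 100 nM quencher-labelled ATP aptamer, imaged in selection buffer, then imaged after 15 min with 500 uM ATP at 22 °C. Five buffer/ATP cycles ran, with NaOH stripping and re-annealing between them. The fluorescence ratio is summed target-cycle over summed buffer-cycle Cy3 intensity per cluster, averaged per switch-domain sequence. Clusters outside 100-1000 RFU were excluded.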", "note": "± gives the standard deviation of the averaged measurements.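 Also: ATP exposure 15 min at 22 °C before imaging.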", "data": [{"sequence": "CGCGCGTCGG", "values": [{"measurement": "switch fluorescence ratio", "value": "0.978 ± 0.021"}]}, {"sequence": "ATCAGATAGG", "values": [{"measurement": "switch fluorescence ratio", "value": "1 ± 0.026"}]}, {"sequence": "GCAGCGGCTG", "values": [{"measurement": "switch fluorescence ratio", "value": "0.994 ± 0.014"}]}, {"sequence": "GAGGGGGGTG", "values": [{"measurement": "switch fluorescence ratio", "value": "1 ± 0.028"}]}, {"sequence": "AGGTTGGGGC", "values": [{"measurement": "switch fluorescence ratio", "value": "1.01 ± 0.052"}]}, {"sequence": "TTCTAAGGGG", "values": [{"measurement": "switch fluorescence ratio", "value": "1.93 ± 1.3"}]}, {"sequence": "CGGTCTGCGA", "values": [{"measurement": "switch fluorescence ratio", "value": "1.05 ± 0.013"}]}, {"sequence": "GGTTCGAGAC", "values": [{"measurement": "switch fluorescence ratio", "value": "1.01 ± 0.025"}]}, {"sequence": "TCGGAGTCTC", "values": [{"measurement": "switch fluorescence ratio", "value": "1.127 ± 0.0029"}]}, {"sequence": "CACCAGGAAT", "values": [{"measurement": "switch fluorescence ratio", "value": "1.08 ± 0.021"}]}, {"sequence": "TTAAGACTTG", "values": [{"measurement": "switch fluorescence ratio", "value": "1 ± 0.012"}]}, {"sequence": "GACGATGGGT", "values": [{"measurement": "switch fluorescence ratio", "value": "1.029 ± 0.0032"}]}, {"sequence": "ATTATGTAGG", "values": [{"measurement": "switch fluorescence ratio", "value": "0.988 ± 0.015"}]}, {"sequence": "AGATTATGGG", "values": [{"measurement": "switch fluorescence ratio", "value": "0.974 ± 0.033"}]}, {"sequence": "GCTGCCTAAA", "values": [{"measurement": "switch fluorescence ratio", "value": "0.9809 ± 0.0019"}]}, {"sequence": "CATTGGTGAG", "values": [{"measurement": "switch fluorescence ratio", "value": "0.992 ± 0.032"}]}, {"sequence": "CAGCATCATC", "values": [{"measurement": "switch fluorescence ratio", "value": "1.242 ± 0.011"}]}, {"sequence": "GAGCGTCACG", "values": [{"measurement": "switch fluorescence ratio", "value": "1.006 ± 0.0055"}]}, {"sequence": "CAGGTGTCTG", "values": [{"measurement": "switch fluorescence ratio", "value": "1.13 ± 0.032"}]}, {"sequence": "GTTGAATCTG", "values": [{"measurement": "switch fluorescence ratio", "value": "1.26 ± 0.36"}]}, {"sequence": "TCGCGGGCTA", "values": [{"measurement": "switch fluorescence ratio", "value": "1.04 ± 0.046"}]}, {"sequence": "GAATTGTGGG", "values": [{"measurement": "switch fluorescence ratio", "value": "0.989 ± 0.039"}]}, {"sequence": "AAGCTAATTT", "values": [{"measurement": "switch fluorescence ratio", "value": "1.01 ± 0.011"}]}, {"sequence": "TCGTTGATGC", "values": [{"measurement": "switch fluorescence ratio", "value": "1.08 ± 0.08"}]}, {"sequence": "AATAATTCTG", "values": [{"measurement": "switch fluorescence ratio", "value": "0.984 ± 0.053"}]}, {"sequence": "AATAAATTAA", "values": [{"measurement": "switch fluorescence ratio", "value": "0.977 ± 0.031"}]}, {"sequence": "TTGTTATATT", "values": [{"measurement": "switch fluorescence ratio", "value": "0.983 ± 0.026"}]}, {"sequence": "GGGGGGATAT", "values": [{"measurement": "switch fluorescence ratio", "value": "1.05 ± 0.097"}]}, {"sequence": "CAGATACAAG", "values": [{"measurement": "switch fluorescence ratio", "value": "1.036 ± 0.0095"}]}, {"sequence": "GATTATTGGG", "values": [{"measurement": "switch fluorescence ratio", "value": "0.988 ± 0.036"}]}, {"sequence": "GTCCGGGGGC", "values": [{"measurement": "switch fluorescence ratio", "value": "1.13 ± 0.04"}]}, {"sequence": "ATTTTATGCC", "values": [{"measurement": "switch fluorescence ratio", "value": "1.01 ± 0.031"}]}, {"sequence": "TTTGCACATT", "values": [{"measurement": "switch fluorescence ratio", "value": "1.02 ± 0.069"}]}, {"sequence": "TTCATTGGTT", "values": [{"measurement": "switch fluorescence ratio", "value": "0.998 ± 0.038"}]}, {"sequence": "GGTTGGCAGA", "values": [{"measurement": "switch fluorescence ratio", "value": "0.99 ± 0.059"}]}, {"sequence": "TACTGTATTG", "values": [{"measurement": "switch fluorescence ratio", "value": "1.03 ± 0.13"}]}, {"sequence": "GGTAAAAATT", "values": [{"measurement": "switch fluorescence ratio", "value": "0.98453 ± 0.00014"}]}, {"sequence": "ATTAAGTCGC", "values": [{"measurement": "switch fluorescence ratio", "value": "1.01 ± 0.022"}]}, {"sequence": "TTTAGTTTTC", "values": [{"measurement": "switch fluorescence ratio", "value": "0.991 ± 0.019"}]}, {"sequence": "TATTAGATTC", "values": [{"measurement": "switch fluorescence ratio", "value": "0.9656 ± 0.0023"}]}, {"sequence": "TATAACTTGA", "values": [{"measurement": "switch fluorescence ratio", "value": "1.02 ± 0.0048"}]}, {"sequence": "TAAGGGCTGC", "values": [{"measurement": "switch fluorescence ratio", "value": "1.036 ± 0.0084"}]}, {"sequence": "CGGGTGTCAC", "values": [{"measurement": "switch fluorescence ratio", "value": "1.06 ± 0.024"}]}, {"sequence": "GGGGGGGGC", "values": [{"measurement": "switch fluorescence ratio", "value": "0.989 ± 0.061"}]}, {"sequence": "GGGTTGGAGT", "values": [{"measurement": "switch fluorescence ratio", "value": "0.9965 ± 0.0081"}]}, {"sequence": "TAAATTTATT", "values": [{"measurement": "switch fluorescence ratio", "value": "1.01 ± 0.017"}]}, {"sequence": "TAGGCGGTGT", "values": [{"measurement": "switch fluorescence ratio", "value": "1.01 ± 0.012"}]}, {"sequence": "AGGGCAGGGT", "values": [{"measurement": "switch fluorescence ratio", "value": "0.975 ± 0.018"}]}, {"sequence": "TATGCGAGAC", "values": [{"measurement": "switch fluorescence ratio", "value": "2.3 ± 0.15"}]}, {"sequence": "AATAGTGGGC", "values": [{"measurement": "switch fluorescence ratio", "value": "1.01 ± 0.043"}]}, {"sequence": "GTGGGGCGCA", "values": [{"measurement": "switch fluorescence ratio", "value": "1.01 ± 0.026"}]}, {"sequence": "GTGACTGTGT", "values": [{"measurement": "switch fluorescence ratio", "value": "0.963 ± 0.014"}]}, {"sequence": "AAAGTGGGG", "values": [{"measurement": "switch fluorescence ratio", "value": "0.973 ± 0.016"}]}, {"sequence": "AGAGGTGTGC", "values": [{"measurement": "switch fluorescence ratio", "value": "1.049 ± 0.01"}]}, {"sequence": "ATCTTTCGCG", "values": [{"measurement": "switch fluorescence ratio", "value": "1.02 ± 0.015"}]}, {"sequence": "TTTGGTAAGC", "values": [{"measurement": "switch fluorescence ratio", "value": "1.02 ± 0.036"}]}, {"sequence": "GGATTGTTTG", "values": [{"measurement": "switch fluorescence ratio", "value": "1.009 ± 0.01"}]}, {"sequence": "ATTGGGGGGA", "values": [{"measurement": "switch fluorescence ratio", "value": "0.982 ± 0.018"}]}, {"sequence": "AATATTTGGC", "values": [{"measurement": "switch fluorescence ratio", "value": "1 ± 0.059"}]}, {"sequence": "AAGGGGTGCA", "values": [{"measurement": "switch fluorescence ratio", "value": "0.968 ± 0.058"}]}, {"sequence": "CGTGTAGGAG", "values": [{"measurement": "switch fluorescence ratio", "value": "0.99262 ± 0.00056"}]}, {"sequence": "TTATATTAG", "values": [{"measurement": "switch fluorescence ratio", "value": "0.9817 ± 0.001"}]}, {"sequence": "ATTTAAGCTT", "values": [{"measurement": "switch fluorescence ratio", "value": "1.07 ± 0.048"}]}, {"sequence": "TTGTGAATTA", "values": [{"measurement": "switch fluorescence ratio", "value": "0.982 ± 0.022"}]}, {"sequence": "TGTTGTTTGC", "values": [{"measurement": "switch fluorescence ratio", "value": "0.982 ± 0.014"}]}, {"sequence": "AAGTCAATTC", "values": [{"measurement": "switch fluorescence ratio", "value": "1.36 ± 0.12"}]}, {"sequence": "CGGTTATCGG", "values": [{"measurement": "switch fluorescence ratio", "value": "1.002 ± 0.0031"}]}, {"sequence": "GGTATGGGAG", "values": [{"measurement": "switch fluorescence ratio", "value": "0.9913 ± 0.001"}]}, {"sequence": "GGGGGCGGTC", "values": [{"measurement": "switch fluorescence ratio", "value": "0.997 ± 0.023"}]}, {"sequence": "GGGAATGTAG", "values": [{"measurement": "switch fluorescence ratio", "value": "1.01 ± 0.018"}]}, {"sequence": "TGAAGGCTTA", "values": [{"measurement": "switch fluorescence ratio", "value": "0.994 ± 0.024"}]}, {"sequence": "CAGTTGCTCA", "values": [{"measurement": "switch fluorescence ratio", "value": "1.012 ± 0.0097"}]}, {"sequence": "TGATGATGAC", "values": [{"measurement": "switch fluorescence ratio", "value": "1.01 ± 0.0038"}]}, {"sequence": "AATCAGCATT", "values": [{"measurement": "switch fluorescence ratio", "value": "1.08 ± 0.076"}]}, {"sequence": "AGTAGAGGTT", "values": [{"measurement": "switch fluorescence ratio", "value": "1.008 ± 0.0064"}]}, {"sequence": "TTTGATACCA", "values": [{"measurement": "switch fluorescence ratio", "value": "1.005 ± 0.0051"}]}, {"sequence": "GGTAAGATAG", "values": [{"measurement": "switch fluorescence ratio", "value": "1.01 ± 0.017"}]}, {"sequence": "GGCGGAGAGG", "values": [{"measurement": "switch fluorescence ratio", "value": "1.08 ± 0.022"}]}, {"sequence": "GGGGGGGGCT", "values": [{"measurement": "switch fluorescence ratio", "value": "1 ± 0.045"}]}, {"sequence": "CCTTGCGGGA", "values": [{"measurement": "switch fluorescence ratio", "value": "1.06 ± 0.011"}]}, {"sequence": "TACCAGCCGA", "values": [{"measurement": "switch fluorescence ratio", "value": "1.06 ± 0.043"}]}, {"sequence": "GTGAGGGGCG", "values": [{"measurement": "switch fluorescence ratio", "value": "0.964 ± 0.035"}]}, {"sequence": "GCGGCACATA", "values": [{"measurement": "switch fluorescence ratio", "value": "1.09 ± 0.042"}]}, {"sequence": "GTGGGGTCGG", "values": [{"measurement": "switch fluorescence ratio", "value": "0.979 ± 0.0057"}]}, {"sequence": "GCATCTAAGC", "values": [{"measurement": "switch fluorescence ratio", "value": "1.06 ± 0.043"}]}, {"sequence": "TGTTGGGGGT", "values": [{"measurement": "switch fluorescence ratio", "value": "0.962 ± 0.034"}]}, {"sequence": "CCGGTTACGT", "values": [{"measurement": "switch fluorescence ratio", "value": "1.17 ± 0.2"}]}, {"sequence": "TTAGGGTATG", "values": [{"measurement": "switch fluorescence ratio", "value": "1.03 ± 0.029"}]}, {"sequence": "GATTTGGCTC", "values": [{"measurement": "switch fluorescence ratio", "value": "1 ± 0.031"}]}, {"sequence": "TAATAGATCC", "values": [{"measurement": "switch fluorescence ratio", "value": "1.01 ± 0.067"}]}, {"sequence": "CCGGGGTAGG", "values": [{"measurement": "switch fluorescence ratio", "value": "1.04 ± 0.024"}]}, {"sequence": "TATCAGATTA", "values": [{"measurement": "switch fluorescence ratio", "value": "0.998 ± 0.033"}]}, {"sequence": "AGTTCTAGGG", "values": [{"measurement": "switch fluorescence ratio", "value": "0.971 ± 0.031"}]}, {"sequence": "TTGGTTAGGG", "values": [{"measurement": "switch fluorescence ratio", "value": "0.986 ± 0.027"}]}, {"sequence": "TTACGGGGGT", "values": [{"measurement": "switch fluorescence ratio", "value": "1.017 ± 0.01"}]}, {"sequence": "TTTCTGGTGC", "values": [{"measurement": "switch fluorescence ratio", "value": "1.16 ± 0.085"}]}, {"sequence": "GGAGTAAGAT", "values": [{"measurement": "switch fluorescence ratio", "value": "1.3 ± 0.018"}]}, {"sequence": "GGTAAGACGT", "values": [{"measurement": "switch fluorescence ratio", "value": "0.999 ± 0.038"}]}, {"sequence": "AGTTGGTCTA", "values": [{"measurement": "switch fluorescence ratio", "value": "1 ± 0.017"}]}, {"sequence": "TATGGGTGAT", "values": [{"measurement": "switch fluorescence ratio", "value": "1.01 ± 0.034"}]}]}
